Reference: US20240254209A1 (published 2024)

T1: peanut allergen Ara h 6 (peanut (Arachis hypogaea), UniProt Q647G9 22-145)
T1 construct: also called recombinant Ara h 6
T1 sequence (looked up): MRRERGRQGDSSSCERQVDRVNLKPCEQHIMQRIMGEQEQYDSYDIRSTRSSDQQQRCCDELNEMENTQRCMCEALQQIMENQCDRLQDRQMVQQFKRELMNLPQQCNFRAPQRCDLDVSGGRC

T2: peanut allergen Ara h 1 (peanut (Arachis hypogaea), UniProt P43238 26-626)
T2 construct: also called F422
T2 sequence (looked up): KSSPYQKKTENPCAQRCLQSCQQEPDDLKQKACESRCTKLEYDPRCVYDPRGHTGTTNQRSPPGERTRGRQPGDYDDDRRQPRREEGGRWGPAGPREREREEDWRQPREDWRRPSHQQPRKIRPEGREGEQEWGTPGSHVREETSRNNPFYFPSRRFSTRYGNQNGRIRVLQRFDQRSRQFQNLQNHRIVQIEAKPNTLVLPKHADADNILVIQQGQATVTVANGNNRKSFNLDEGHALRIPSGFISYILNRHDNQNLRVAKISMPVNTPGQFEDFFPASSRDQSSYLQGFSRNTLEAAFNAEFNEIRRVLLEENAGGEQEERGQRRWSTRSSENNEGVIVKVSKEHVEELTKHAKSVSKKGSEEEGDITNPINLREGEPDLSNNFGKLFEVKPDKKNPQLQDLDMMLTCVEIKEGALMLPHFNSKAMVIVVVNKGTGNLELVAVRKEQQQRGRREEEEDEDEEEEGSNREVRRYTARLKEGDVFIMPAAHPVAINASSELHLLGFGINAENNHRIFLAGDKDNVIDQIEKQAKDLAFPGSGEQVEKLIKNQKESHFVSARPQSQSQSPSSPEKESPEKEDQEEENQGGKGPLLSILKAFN


Columns and labels:
peanut allergen Ara h 6 [1] = molecular target: T1, peanut allergen Ara h 6; assay: Phadia ImmunoCAP and/or ELISA and Western blot
peanut allergen Ara h 9 = molecular target: T3, peanut allergen Ara h 9 (peanut (Arachis hypogaea)); assay: ImmunoCAP, hybridoma supernatant
T3 construct: ImmunoCAP component F427; also called F427
Protocol: (§1) Verification and validation of IgE mAbs peanut allergen specificity. Following the unbiased generation of IgE secreting human hybridomas from peanut allergic subject PBMCs, peanut protein binding and peanut allergen protein specificity was determined. Hybridoma culture supernatant was initially used for this validation. […] Using the available ImmunoCAP components (purified allergen proteins: Ara h 1, F422; Ara h 2, F423; Ara h 3, F424; Ara h 8 F352; Ara h 9 F427), the exact allergen specificity was determined for those which bound Ara h 1, 2, and 3.
(§2) Hybridoma cell culture supernatant was used for initial identification of allergen specificity using ImmunoCAP analysis. Peanut reactivity was first determined using peanut ImmunoCAP. Component analysis identified IgE antibodies specific for Ara h 1, 2, and 3. All antibodies not identified in this table were determined to bind Ara h 6.

peanut allergen Ara h 3 = molecular target: T4, peanut allergen Ara h 3 (peanut (Arachis hypogaea)); assay: ImmunoCAP, hybridoma supernatant
T4 construct: also called F424
Protocol: as §1, §2

peanut allergen Ara h 8 = molecular target: T5, peanut allergen Ara h 8 (peanut (Arachis hypogaea)); assay: ImmunoCAP, hybridoma supernatant
T5 construct: ImmunoCAP component F352; also called F352
Protocol: as §1, §2

peanut allergen Ara h 1 = molecular target: T2, peanut allergen Ara h 1; assay: allergen specificity as listed in Table D
peanut allergen Ara h 6 [2] = molecular target: T1, peanut allergen Ara h 6; assay: told in the text

Row | Binder | binding result (peanut allergen Ara h 6 [1]) | ImmunoCAP kUA/L (peanut allergen Ara h 9) | ImmunoCAP kUA/L (peanut allergen Ara h 3) | ImmunoCAP kUA/L (peanut allergen Ara h 8) | also measured
1 | human IgE mAb 15C2 (antibody, V domains shown, human IgE from hybridoma) VH: QVQLVQSESELKKPGASVKISCKASGYDLTKYAMNWVRQAPGQGLEWMGWINTNTAKPTYAQGFTGRFVFSLDTSVRTIYLEISNLKAEDTAIYYCSRDGSGASWGQGTLVTVSS VL: DIQMTQSPSTLSASVGDRVTITCRASQNIGRWLAWHQQKPGKAPKVLITKASNLESGVPSRFTGSGSGTDFTLTITSLQPDDFATYYCQQYTTYSGTFGQGTRVEIK | binds |  |  |  | 
2 | human IgE mAb 1A8 (antibody, V domains shown, human IgE from hybridoma) VH: QLQLQESGPGLVKPSETLSLTCSVSDDSISTPSYFWTWIRQPPGKGLEWIASIYYTGTTYYNPSLKSRVTLSVDTPKRQFFLRLSSVTAADTAVYYCARYLDYVWLRAFDVWGQGAMVTVSS VL: EIVLTQSPATLSLSPGERATLSCRASPSVGRFLAWYQQKPGQAPRLLIYDASQRATDIPARFSASGSGTDFTLTIDSLEPEDFAIYYCQHRSNWPVTFGGGTRVEIK | binds |  |  |  | 
3 | human IgE mAb 20M10 (antibody, V domains shown, human IgE from hybridoma) VH: EVQLVESGGGLVKPGGSLRLSCTVSGFTFNMHSMNWVRQAPGKGLEWVSFISSTSTYIYYPDSVKGRFTVSRDNSKNSLYLQMTSLRAEDTAVYYCVRRGRGGAARALDNWGQGTLVTVSS VL: SYVLPQTPSLSVAPGQTATISCGGNNTGSKSVHWYQQKPGQAPLLVVYDNSDRPSGIPERFSGSNSGNTATLTLSRVEAEDEADYYCQVWDSTIDHVIFGGGTKLTVL | binds |  |  |  | 
4 | human IgE mAb 9A11 (antibody, V domains shown, human IgE from hybridoma) VH: EVQLVESGGGLVRPGGSLRLSCVASGFTFNTYWMHWVRQAPGKGLLWVSSLNKDGSSPTYADSVKGRFTISRDNTNNTLFLQLDSLRAEDTAVYYCVRDRRAVTTARYFDLWGRGTLVTVSS VL: DIVMTQSPESLAVSLGERATINCKSSSNIDNYLGWYQQRPGQPPKLLIYWASKRESGVPDRFSGSGSGTDFTLTIGRLQAEDVAVYYCQQYYTSPPVTFGGGTKVEIK | binds |  |  |  | 
5 | human IgE mAb 21C10 (antibody, V domains shown, human IgE from hybridoma) VH: EVQLVESGGGLVKPGGSLRLSCAASGFILSRSSMSWVRQAPGKGLEWVSYISSTSSHIYYADSLKGRFTISRDNTENSVYLQMSSLRAEDTGVYYCARKTNGAWFLDLWGRGTLVTVSS VL: QSVLTQPPSVSGAPGQRVTISCTGSSSNIGAGSDVHWYQQFPGSAPHVLIYGNNQRPSGVPDRFSASKSGTSASLAITGLQADDEADYYCQSYDYDLSGSWVFGGGTKLTVL | binds | 0.32 kUA/L | 0.83 kUA/L | 0.53 kUA/L | 
6 | human IgE mAb 40C7 (antibody, V domains shown, human IgE from hybridoma) VH: EVQLVESGGDLVQPGGSLRLSCAASRFSFGSYAMSWVRQAPGKGLEWVSAISSSGGRAYYADSVKGRFTISRDNSRNTLYLQLNSLRGEDTAFYYCTKEGDTGSLWLFDSWGQGTLVTVSS VL: not shown |  |  |  |  | binding result (peanut allergen Ara h 1): binds
7 | human IgE mAb 3B10 (antibody, V domains shown, human IgE from hybridoma) VH: EVQLVESGGALVKPGGSLRLSCEGSGFMFSSAWLHWVRQAPGMGLELVGRMKSETDGGTLDYTAPVRGRFTISRDDSKNMFFLQMNSLKAEDTAVYYCVTGNFDYRSSPLGFWGQGALVTVSS VL: DIQMTQSPSTLSASAGDRVTITCRASENIYKWLAWYQQKPGKAPKLLIYKVSTLESGVPSRFSGSGFGTEFTLTISSLQPGDFATYYCQHYNSFPFTFGQGTKLEVK |  |  |  |  | binding result (peanut allergen Ara h 1): binds
8 | human IgE mAb 11F10 (antibody, V domains shown, human IgE from hybridoma) VH: EVQLVESGGGLVQPGRSLRLSCAASGFTFDDYTMHWVRQAPGKGLEWVSSIRWNSGNLDYADSVKGRFTISRDNARHSLYLQMNSLRAEDTALYYCVKDNGLRTLDFWGQGTLVTVSS VL: DIVMTQSPLSLPVTPGEPASISCRSSQSLLHRNGYNYLDWYLQKPGQSPQLLISLASNRASGVPDRFSGSGSGTDFTLKISRVEAEDVGVYYCMQALQTWTFGQGTKVELK |  |  |  |  | binding result (peanut allergen Ara h 6 [2]): binds
9 | human IgE mAb 20G11 (antibody, V domains shown, human IgE from hybridoma) VH: QVQLVESGGGVVQPGGSLRLSCATSGFTFSSYGMHWVRQAPGKGLEWVAFIRYNGSNKYYADSVKGRFTISRDTSKNTLYLQMNSLRAEDSAVYYCAKDGDYDSWSGLTEHFQHWGQGTLVTVSS VL: not shown |  |  |  |  | binding result (peanut allergen Ara h 6 [2]): binds
10 | human IgE mAb 3B7 (antibody, V domains shown, human IgE from hybridoma) VH: QVQLVQSGSELKKPGASMKVSCKASGYTFTNYAMNWVRQAPGQGLEWMGWINTNTGKPTYAQGFTGRFVFSLDTSVSMAYLQISSLEAGDTAVYFCARGESLAALGSFAYWGQGTLVTVSS VL: DIQMTQSPSSLSASVGDRVTITCRASQSINSYLAWYQQKPGKAPNLLIYAASNLQSGVPSRFSGSGSGTDFTLTISSLQPEDFATYYCQQSSSTFWTFGQGTKVEIK |  | 0.25 kUA/L | 1.15 kUA/L | 0.42 kUA/L | 
11 | human IgE mAb 3C3 (antibody, V domains shown, human IgE from hybridoma) VH: QLQLQESGPGLVKPSETLSLTCSISGASINSDDYYWGWIRQAPGEALEWIASIDASGTTFYNPSLRSRVTISVDTSTNQISLRLNSVTAADTAIYYCARRKTYYDFLTDYYNWYFDVWGRGTLVTVSS VL: QSALTQPRSVSGSPGQSVTFSCTGINSDIRDYDYVSWYQQHPGEAPKLIIYDVTKRASGVPSRFSGSKSGNTASLTISGLQAEDEADYYCCSYSVTYSFEVFGTGTQVSVL |  | 0.46 kUA/L | 3460 kUA/L | 0.51 kUA/L | 
12 | human IgE mAb 7B6 (antibody, V domains shown, human IgE from hybridoma) VH: QVQLQQWGAGLLKPSETLSLTCAVYGGSFNGYYWSWIRQPPGKGLEWIGEIDHSGSTNYNSSLKSRVTISVDTSKNQFSLKLSSVTAADTAVYYCARRRIGSLLKYFQDWGQGTLVTVSS VL: SYELTQPPSVSVSPGQTASITCSGDKLGDSYVCWYQLKPGQSPVLVIYQDTKRPSGIPERFSGSNSGNTATLTISETQAMDEADYYCQAWDTTTDWVFGGGTKLTVL |  | 0.21 kUA/L | 0.32 kUA/L | 0.29 kUA/L | 
13 | human IgE mAb 26A5 (antibody, V domains shown, human IgE from hybridoma) VH: QVQLVQSGSELRKPGASVKVSCKASGYTFTKYGMNWVRQAPGQGLEWMGWINTNTAKPTYAQDFTGRFVFSLDTSVNTAYLEISGLKAEDTAVYYCATDGSEGSWGQGTLVTVSS VL: DIQMTQSPSTLSASVGDRVTITCRASQSIGTWLAWHQQKPGTAPKVLIYKASNLKSGVPSRFSGSGSGTDFTLTISSLQPDDVATYYCQQYNTYSGTFGQGTRVEIK |  | 0.14 kUA/L | 0.25 kUA/L | 0.15 kUA/L | 
14 | human IgE mAb 15A7 (antibody, V domains shown, human IgE from hybridoma) VH: QVQLVQSGPEVRKPGASVKVSCKTSGYMFTDYEMNWVRQAPGQGLEWMGLINPHSGDTGYAQKFQGRVSMTSDTSTRTFYLELTGLTSEDTAVYYCARSQGTFEVYYFVSWGQGSLVTVSS VL: SYVLTQPPSVSVAPGKTASITCGAKNIATKRVHWYRQKPGQAPVVVVSDEEDRSSVIPERFSGSKSGDTATLEISRVEAGDEADYYCQVWDSLADQVVFGGGTKVTVL |  |  | 0.14 kUA/L |  | 
15 | human IgE mAb 4G4 (antibody, V domains shown, human IgE from hybridoma) VH: EVQLVQSGGGLVQPGGSLRLSCAASRFIFGSYAMSWVRQAPGKGLEWVSAISSSGGRTYYADSVKGRFTISRDNSRNTLYLQLSSLRAEDTAFYYCTKEGDTGSLWLFDSWGQGTLVTVSS VL: not shown |  | 0.19 kUA/L | 0.48 kUA/L | 0.34 kUA/L | 
